From publication PMC4941734, “Structural and dynamics studies of a truncated variant of CI repressor from bacteriophage TP901-1” (Scientific Reports, 2016)

Assays:
[1] = molecular target: CI∆58, truncated CI repressor from bacteriophage TP901-1 (residues 1–122) (bacteriophage TP901-1) (UniProt O48503); assay: native MS; apo CI∆58 6 μM in 250 mM ammonium acetate, pH 6.8; nano-ESI, quadrupole time-of-flight
[2] = molecular target: CI∆58, truncated CI repressor from bacteriophage TP901-1 (residues 1–122) (bacteriophage TP901-1) (UniProt O48503); assay: SEC; HiLoad 26/60 Superdex 75; native molecular weight estimated by comparison with globular protein standards
[3] = test system: CI-NTD (bacteriophage TP901-1 (host Lactococcus lactis)); assay: EMSA; details: 0.4 nM DNA; EMSA: ~0.4-0.5 nM Cy5 DNA, binding solution of ref 3 (not given), on ice 30 min, 2% agarose, 1x TBE, 0 °C; NMR: 300 mM NaCl, 298 K; native MS: 250 mM …
[4] = molecular target: T1, CI∆58 (CI repressor, C-terminally truncated) (bacteriophage TP901-1 (host Lactococcus lactis)) (UniProt O48503); assay: EMSA; details: 0.4 nM DNA; EMSA: ~0.4-0.5 nM Cy5 DNA, binding solution of ref 3 (not given), on ice 30 min, 2% agarose, 1x TBE, 0 °C; NMR: 300 mM NaCl, 298 K; native MS: 250 mM …
T1 sequence: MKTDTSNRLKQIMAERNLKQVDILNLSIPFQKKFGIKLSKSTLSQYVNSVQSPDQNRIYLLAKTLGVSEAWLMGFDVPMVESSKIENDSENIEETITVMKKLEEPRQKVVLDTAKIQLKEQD

[5] = molecular target: the molecule itself; assay: SEC; HiLoad 26/60 Superdex 75; native molecular weight estimated by comparison with globular protein standards

Molecule: CI∆58, truncated CI repressor from bacteriophage TP901-1 (residues 1–122) (from UniProt O48503 1-122) (domain or fragment)
- stoichiometry N [1]: 2
- stoichiometry N [2]: 2

Molecule: P5 fragment containing OL
- Kd [3]: 1100 nM
- Kd [4]: 3 nM

B1: CI-CTD1, synthetic peptide of the dimerization region of CI repressor from bacteriophage TP901-1 (residues 90–125) (peptide)
peptide: ENIEETITVMKKLEEPRQKVVLDTAKIQLKEQDEQ
notes: CI repressor of Lactococcus lactis bacteriophage TP901-1, dimerization region CTD1; printed as residues 90-125 and as a 35 residues peptide; Delivered as a lyophilized chloride salt, purity 98.45%; solubilised at pH 12 and brought back to pH 7.5; source: synthetic peptide, bought: CASLO
- stoichiometry N [5]: 4
